This note sets out measurements from US20210032299A1 (Eli Lilly, published 2021).

Starred links: 1 amine or outer side, 2 acyl side, 3 side chain; linkers in the order of their positions; H or OH if unused. Non-standard residues stand in square brackets, D forms with d. Groups on a side chain read outwards from the residue. No end group written: not given here. *: point of attachment. C20 diacid = O=C(O)CCCCCCCCCCCCCCCCCCC(=O)*; αMePhe(2-F) = C[C@](N)(Cc1ccccc1F)C(=O)O; γGlu = O=C(O)[C@H](CCC(=O)[*:2])N[*:1]; αMeF = C[C@](N)(Cc1ccccc1)C(=O)O; 4Pal = N[C@@H](Cc1ccncc1)C(=O)O; αMeL = CC(C)C[C@](C)(N)C(=O)O; AEEA = NCCOCCOCC(=O)O; Aib = CC(C)(N)C(=O)O

One test has as its target T1, human GLP-1 receptor (human, UniProt P43220 24-463).
T1 construct: whole, on cells; Assayed as crude membranes of stably transfected HEK293 cells; also called hGLP1R; hGLP-1R
Nature of the test: SPA, displacement of [125I]-GLP-1 from hGLP-1R membranes, 0.1% bacitracin. The method in brief:
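Binding buffer: 25 mM HEPES pH 7.4, 2.5 mM CaCl₂, 1 mM MgCl₂, 0.1% bacitracin, 0.003% Tween-20, protease inhibitors without EDTA. Four-parameter nonlinear regression; Kᵢ given as geometric mean ± SEM, n = independent replicates run on different days.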

Another test concerns the target T2, human glucagon receptor (human, UniProt P47871 26-477).
T2 construct: whole, on cells; Assayed as crude membranes of stably transfected HEK293 cells; also called hGcgR; GcgR
As to the kind of experiment: SPA, displacement of [125I]-Gcg from hGcgR membranes, 0.1% bacitracin. The method in brief: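 Binding buffer: 25 mM HEPES pH 7.4, 2.5 mM CaCl₂, 1 mM MgCl₂, 0.003% Tween-20, protease inhibitors without EDTA. Counted by scintillation after 12 h incubation/settling at room temperature. Four-parameter nonlinear fit; Kᵢ given as geometric mean ± SEM of independent replicates run on different days.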
(Displacement assays read how much labelled ligand stays bound in the presence of the test substance.)

Test [1] has as its target T3, human glucose-dependent insulinotropic polypeptide (GIP) receptor (human, UniProt P48546 22-466).
T3 construct: whole, on cells; Assayed as crude membranes of stably transfected CHO cells; also called hGIPR; human GIP receptor
T3 sequence (looked up): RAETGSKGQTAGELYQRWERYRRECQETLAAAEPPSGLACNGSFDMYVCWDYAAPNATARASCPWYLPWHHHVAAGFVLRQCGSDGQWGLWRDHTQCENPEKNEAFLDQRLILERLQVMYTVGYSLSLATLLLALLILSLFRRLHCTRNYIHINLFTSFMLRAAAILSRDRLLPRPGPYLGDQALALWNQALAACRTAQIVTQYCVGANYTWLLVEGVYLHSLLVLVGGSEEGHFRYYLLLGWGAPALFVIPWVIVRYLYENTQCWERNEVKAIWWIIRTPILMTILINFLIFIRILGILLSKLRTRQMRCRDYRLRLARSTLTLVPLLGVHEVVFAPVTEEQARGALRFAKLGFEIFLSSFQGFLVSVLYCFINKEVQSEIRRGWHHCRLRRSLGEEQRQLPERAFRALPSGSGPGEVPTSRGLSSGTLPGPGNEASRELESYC
Nature of the test: SPA, displacement of [125I]-GIP from hGIPR membranes, 0.1% bacitracin.

T2 sequence (P47871 26-477): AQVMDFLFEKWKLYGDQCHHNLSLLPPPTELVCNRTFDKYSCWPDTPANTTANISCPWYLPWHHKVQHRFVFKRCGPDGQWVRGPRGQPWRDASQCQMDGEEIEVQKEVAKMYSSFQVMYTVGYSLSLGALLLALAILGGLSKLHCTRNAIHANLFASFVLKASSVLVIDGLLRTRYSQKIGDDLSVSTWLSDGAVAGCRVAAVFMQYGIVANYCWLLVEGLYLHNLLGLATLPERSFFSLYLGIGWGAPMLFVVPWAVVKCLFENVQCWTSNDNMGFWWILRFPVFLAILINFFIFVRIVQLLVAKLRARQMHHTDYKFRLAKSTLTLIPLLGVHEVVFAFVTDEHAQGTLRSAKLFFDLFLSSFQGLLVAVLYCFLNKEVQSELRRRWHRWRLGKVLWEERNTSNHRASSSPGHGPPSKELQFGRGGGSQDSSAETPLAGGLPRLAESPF

B1: Example 33 (peptide)
peptide: Ac-[dY]AEGT[αMePhe(2-F)]ISDYSIALDKK([AEEA-AEEA-γGlu-C20 diacid])HQ[Aib]EFVNYLLEGGPSSGAPPPS-NH2
SMILES: CC[C@H](C)[C@H](NC(=O)[C@H](CO)NC(=O)[C@H](Cc1ccc(O)cc1)NC(=O)[C@H](CC(=O)O)NC(=O)[C@H](CO)NC(=O)[C@@H](NC(=O)[C@](C)(Cc1ccccc1F)NC(=O)[C@@H](NC(=O)CNC(=O)[C@H](CCC(=O)O)NC(=O)[C@H](C)NC(=O)[C@@H](Cc1ccc(O)cc1)NC(C)=O)[C@@H](C)O)[C@@H](C)CC)C(=O)N[C@@H](C)C(=O)N[C@@H](CC(C)C)C(=O)N[C@@H](CC(=O)O)C(=O)N[C@@H](CCCCN)C(=O)N[C@@H](CCCCNC(=O)COCCOCCNC(=O)COCCOCCNC(=O)CC[C@H](NC(=O)CCCCCCCCCCCCCCCCCCC(=O)O)C(=O)O)C(=O)N[C@@H](Cc1c[nH]cn1)C(=O)N[C@@H](CCC(N)=O)C(=O)NC(C)(C)C(=O)N[C@@H](CCC(=O)O)C(=O)N[C@@H](Cc1ccccc1)C(=O)N[C@H](C(=O)N[C@@H](CC(N)=O)C(=O)N[C@@H](Cc1ccc(O)cc1)C(=O)N[C@@H](CC(C)C)C(=O)N[C@@H](CC(C)C)C(=O)N[C@@H](CCC(=O)O)C(=O)NCC(=O)NCC(=O)N1CCC[C@H]1C(=O)N[C@@H](CO)C(=O)N[C@@H](CO)C(=O)NCC(=O)N[C@@H](C)C(=O)N1CCC[C@H]1C(=O)N1CCC[C@H]1C(=O)N1CCC[C@H]1C(=O)N[C@@H](CO)C(N)=O)C(C)C
Turning to B1, the results for the Ki (with human GLP-1 receptor; in the test with human glucagon receptor; in test [1]) were 31.2 nM, 63.5 nM and 0.0369 nM, respectively.

B2: Example 48 (peptide)
peptide: Y[Aib]EGTFISDYSI[αMeL]LDKK([AEEA-AEEA-γGlu-C20 diacid])HQ[Aib]DFVE[4Pal]LLAGGPSSGAPPPS-NH2
modifications: N-terminus assumed
SMILES: CC[C@H](C)[C@H](NC(=O)[C@H](Cc1ccccc1)NC(=O)[C@@H](NC(=O)CNC(=O)[C@H](CCC(=O)O)NC(=O)C(C)(C)NC(=O)[C@@H](N)Cc1ccc(O)cc1)[C@@H](C)O)C(=O)N[C@@H](CO)C(=O)N[C@@H](CC(=O)O)C(=O)N[C@@H](Cc1ccc(O)cc1)C(=O)N[C@@H](CO)C(=O)N[C@H](C(=O)N[C@@](C)(CC(C)C)C(=O)N[C@@H](CC(C)C)C(=O)N[C@@H](CC(=O)O)C(=O)N[C@@H](CCCCN)C(=O)N[C@@H](CCCCNC(=O)COCCOCCNC(=O)COCCOCCNC(=O)CC[C@H](NC(=O)CCCCCCCCCCCCCCCCCCC(=O)O)C(=O)O)C(=O)N[C@@H](Cc1c[nH]cn1)C(=O)N[C@@H](CCC(N)=O)C(=O)NC(C)(C)C(=O)N[C@@H](CC(=O)O)C(=O)N[C@@H](Cc1ccccc1)C(=O)N[C@H](C(=O)N[C@@H](CCC(=O)O)C(=O)N[C@@H](Cc1ccncc1)C(=O)N[C@@H](CC(C)C)C(=O)N[C@@H](CC(C)C)C(=O)N[C@@H](C)C(=O)NCC(=O)NCC(=O)N1CCC[C@H]1C(=O)N[C@@H](CO)C(=O)N[C@@H](CO)C(=O)NCC(=O)N[C@@H](C)C(=O)N1CCC[C@H]1C(=O)N1CCC[C@H]1C(=O)N1CCC[C@H]1C(=O)N[C@@H](CO)C(N)=O)C(C)C)[C@@H](C)CC
Take B2: the Ki stood at 211 nM in the test with human GLP-1 receptor, 267 nM in the test with human glucagon receptor and 0.0498 nM in test [1].

B3: Example 50 (peptide)
peptide: Y[Aib]EGT[αMeF]ISDYSI[αMeL]LDKK([AEEA-AEEA-γGlu-C20 diacid])HQ[Aib]DFVE[4Pal]LLAGGPSSGAPPPS-NH2
modifications: N-terminus assumed
SMILES: CC[C@H](C)[C@H](NC(=O)[C@H](CO)NC(=O)[C@H](Cc1ccc(O)cc1)NC(=O)[C@H](CC(=O)O)NC(=O)[C@H](CO)NC(=O)[C@@H](NC(=O)[C@](C)(Cc1ccccc1)NC(=O)[C@@H](NC(=O)CNC(=O)[C@H](CCC(=O)O)NC(=O)C(C)(C)NC(=O)[C@@H](N)Cc1ccc(O)cc1)[C@@H](C)O)[C@@H](C)CC)C(=O)N[C@@](C)(CC(C)C)C(=O)N[C@@H](CC(C)C)C(=O)N[C@@H](CC(=O)O)C(=O)N[C@@H](CCCCN)C(=O)N[C@@H](CCCCNC(=O)COCCOCCNC(=O)COCCOCCNC(=O)CC[C@H](NC(=O)CCCCCCCCCCCCCCCCCCC(=O)O)C(=O)O)C(=O)N[C@@H](Cc1c[nH]cn1)C(=O)N[C@@H](CCC(N)=O)C(=O)NC(C)(C)C(=O)N[C@@H](CC(=O)O)C(=O)N[C@@H](Cc1ccccc1)C(=O)N[C@H](C(=O)N[C@@H](CCC(=O)O)C(=O)N[C@@H](Cc1ccncc1)C(=O)N[C@@H](CC(C)C)C(=O)N[C@@H](CC(C)C)C(=O)N[C@@H](C)C(=O)NCC(=O)NCC(=O)N1CCC[C@H]1C(=O)N[C@@H](CO)C(=O)N[C@@H](CO)C(=O)NCC(=O)N[C@@H](C)C(=O)N1CCC[C@H]1C(=O)N1CCC[C@H]1C(=O)N1CCC[C@H]1C(=O)N[C@@H](CO)C(N)=O)C(C)C
Consider B3, for which the results for the inhibitory constant (Ki) (in the test with human GLP-1 receptor; with human glucagon receptor; in test [1]) were 34.9 nM, 23.4 nM and 0.0501 nM, respectively.

B4: Example 60 (peptide)
peptide: Y[Aib]EGT[αMeF]ISDYSI[αMeL]LDKK([AEEA-AEEA-γGlu-C20 diacid])HQ[Aib]EFVE[4Pal]LLAQGPSSGAPPPS-NH2
modifications: N-terminus assumed
SMILES: CC[C@H](C)[C@H](NC(=O)[C@H](CO)NC(=O)[C@H](Cc1ccc(O)cc1)NC(=O)[C@H](CC(=O)O)NC(=O)[C@H](CO)NC(=O)[C@@H](NC(=O)[C@](C)(Cc1ccccc1)NC(=O)[C@@H](NC(=O)CNC(=O)[C@H](CCC(=O)O)NC(=O)C(C)(C)NC(=O)[C@@H](N)Cc1ccc(O)cc1)[C@@H](C)O)[C@@H](C)CC)C(=O)N[C@@](C)(CC(C)C)C(=O)N[C@@H](CC(C)C)C(=O)N[C@@H](CC(=O)O)C(=O)N[C@@H](CCCCN)C(=O)N[C@@H](CCCCNC(=O)COCCOCCNC(=O)COCCOCCNC(=O)CC[C@H](NC(=O)CCCCCCCCCCCCCCCCCCC(=O)O)C(=O)O)C(=O)N[C@@H](Cc1c[nH]cn1)C(=O)N[C@@H](CCC(N)=O)C(=O)NC(C)(C)C(=O)N[C@@H](CCC(=O)O)C(=O)N[C@@H](Cc1ccccc1)C(=O)N[C@H](C(=O)N[C@@H](CCC(=O)O)C(=O)N[C@@H](Cc1ccncc1)C(=O)N[C@@H](CC(C)C)C(=O)N[C@@H](CC(C)C)C(=O)N[C@@H](C)C(=O)N[C@@H](CCC(N)=O)C(=O)NCC(=O)N1CCC[C@H]1C(=O)N[C@@H](CO)C(=O)N[C@@H](CO)C(=O)NCC(=O)N[C@@H](C)C(=O)N1CCC[C@H]1C(=O)N1CCC[C@H]1C(=O)N1CCC[C@H]1C(=O)N[C@@H](CO)C(N)=O)C(C)C
As for B4, the Ki with human GLP-1 receptor was 51.4 nM; in the test with human glucagon receptor, 26.2 nM; in test [1], 0.039 nM.

B5: Example 44 (peptide)
peptide: Y[Aib]EGT[αMeF]ISDYSIALDKK([AEEA-AEEA-γGlu-C20 diacid])HQ[Aib]DFVE[4Pal]LLEGGPSSGAPPPS-NH2
modifications: N-terminus assumed
SMILES: CC[C@H](C)[C@H](NC(=O)[C@H](CO)NC(=O)[C@H](Cc1ccc(O)cc1)NC(=O)[C@H](CC(=O)O)NC(=O)[C@H](CO)NC(=O)[C@@H](NC(=O)[C@](C)(Cc1ccccc1)NC(=O)[C@@H](NC(=O)CNC(=O)[C@H](CCC(=O)O)NC(=O)C(C)(C)NC(=O)[C@@H](N)Cc1ccc(O)cc1)[C@@H](C)O)[C@@H](C)CC)C(=O)N[C@@H](C)C(=O)N[C@@H](CC(C)C)C(=O)N[C@@H](CC(=O)O)C(=O)N[C@@H](CCCCN)C(=O)N[C@@H](CCCCNC(=O)COCCOCCNC(=O)COCCOCCNC(=O)CC[C@H](NC(=O)CCCCCCCCCCCCCCCCCCC(=O)O)C(=O)O)C(=O)N[C@@H](Cc1c[nH]cn1)C(=O)N[C@@H](CCC(N)=O)C(=O)NC(C)(C)C(=O)N[C@@H](CC(=O)O)C(=O)N[C@@H](Cc1ccccc1)C(=O)N[C@H](C(=O)N[C@@H](CCC(=O)O)C(=O)N[C@@H](Cc1ccncc1)C(=O)N[C@@H](CC(C)C)C(=O)N[C@@H](CC(C)C)C(=O)N[C@@H](CCC(=O)O)C(=O)NCC(=O)NCC(=O)N1CCC[C@H]1C(=O)N[C@@H](CO)C(=O)N[C@@H](CO)C(=O)NCC(=O)N[C@@H](C)C(=O)N1CCC[C@H]1C(=O)N1CCC[C@H]1C(=O)N1CCC[C@H]1C(=O)N[C@@H](CO)C(N)=O)C(C)C
B5: the figures for the Ki (with human GLP-1 receptor; in the test with human glucagon receptor; in test [1]) were 209 nM, 50 nM and 0.059 nM, respectively.

What is called Ki is a dissociation constant, usually derived from enzyme kinetics or from competition with a known ligand. Lower therefore signals higher affinity.
